According to IntAct's records for PubMed 26744420:

B1: PAX-interacting protein 1 (Mus musculus), Q6NZQ4 (parent)
chain: MSEPAPEVPEELFREVKYYAVGDIDPQVIQLLKAGKAKEVSYNALASHIISEDGDNPEVGEAREVFDLPVVKPSWVTLSVQCGALLPVNGFSPESCQIFFGLTACLSQVSSEDRSALWALVTFHGGSCQLNLNKKCTHLIVPEPKGEKYERAVKRTSIKIVTPDWVLDCVSEKRRKDEAFYHPRLIIYEEEEEEEEEGDNEEQDSQNEGSTEKSSVASSAVASPAEQPCSPKPRAEVSKGELMFDDSSDSSPEKQERSLNWAPAEAPPLNTAQRRLPQGKGPGLINLCANVPPVPGDILPPDMRGNLMAPGQNLQNSERSEILGTWSPAVRTLRNITNNADIQQINRPSNVAHILQSLSAPTKSLEQQVARGQQGHPNASAVLFGQAKGAPETHVLQQHHPPQQPQQQHPALHLQPQIMQLQQQQQQQQQQQQQPQPYPQPPSHQFPQQVHQHQFSQQQLQFPQQPLHPQQQLHRPQQQLQPFQQQHALQQQLHQLQQQQLQHHQLAQLQQQQQQQHNLLQQQQQQQQLQRLQQQQQMQNQAAHLSQASQALQHQVLPQQPLQLSLQPPPQQQQQQQLFGHDPAVEIPEESFLLGCVFAIADYPEQMSDKQLLATWKRIIQAHGGTVDPTFTSRCTHLLCASQVSSMYTQALRERKRCVTAHWLNTVLKKKKLMPPHRALHFPVAFPPGGKPCSQHIISVTGFVDNDRDDLKLMAYLAGAKYTGYLCRSNTVLICKEPSGLKYEKAKEWRIPCVNAQWLGDILLGNFEALRQVQYSRYTAFNMPDPFVPTPHLVLGLLDAWRTPVKVTAELLMGVRLPPKLKPNEVANIQPSSKRARIEDLPPPTKKLTPELTPLVLFTGFEPVQVQQYIKKLYILGGEVAECTKKCTHLIASKVTRTVKFLTAISVVKHIVTPDWLEECFKRQTFIDEQNYILRDAEAEVLFSFSLEESLKRAHVSPLFKTKYFYITPGICPSLATMKAIVECAGGKVLAKQPSFRKLMEHKQNKSLSEIILISCENDLHLCREYFARGIDVHNAEFVLTGVLTQTLDYESYKFN

Variants of: B1
Settings: with pgr1a_mouse Pagr1a

effect of a mutation on the interaction	Variant
disrupting interaction	W165R
